What all share (assay): SPR (Biacore T200), 100 nM mAb on NGF chip, similarity to parent mAb
For one assay, the target named is T1, human NGF (human, UniProt P01138 122-241).
T1 construct: also called human Nerve Growth Factor; hN
T1 chain: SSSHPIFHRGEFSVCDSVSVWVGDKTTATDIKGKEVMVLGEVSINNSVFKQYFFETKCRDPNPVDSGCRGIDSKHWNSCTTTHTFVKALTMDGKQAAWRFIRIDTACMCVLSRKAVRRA
A digest of the protocol: (§1)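 CDR alanine-scan mutants of the anti-NGF mAb were each run at 100 nM over an NGF-coated Biacore T200 chip. A threshold band was set from the mean response units of four parent-mAb replicates ±3 SD, covering both on- and off-rate phases. The score is the percentage of each mutant's data points falling inside that band.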

Another assay has as its target T2, canine NGF (canine, UniProt Q29074 110-229 (pig entry), limits assumed).
T2 construct: The protein was secreted from CHO cells and purified; also called cNGF; canine β-NGF
T2 chain: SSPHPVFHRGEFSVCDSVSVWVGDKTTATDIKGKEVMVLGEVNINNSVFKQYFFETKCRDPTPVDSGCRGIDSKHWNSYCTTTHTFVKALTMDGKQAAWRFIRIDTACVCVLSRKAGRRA
Summed up: as §1

In the next assay the target is T3, rat NGF (rat, UniProt P25427 122-241).
T3 construct: also called rN
A digest of the protocol: as §1

T3 sequence (P25427 122-241 limits assumed): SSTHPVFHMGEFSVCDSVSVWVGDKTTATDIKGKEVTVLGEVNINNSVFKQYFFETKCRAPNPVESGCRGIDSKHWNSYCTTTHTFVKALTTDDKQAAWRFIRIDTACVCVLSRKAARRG

B1: can48L2VL_A100L (antibody, V domains shown)
VH: EVQLVESGGDLVKPGGSLRLSCVASGFTFSTYGINWVRQAPGKGLQWVAYISSGGSSTYYADPVKGRFTISRDDAKNMLYLQMNSLRAEDTAIYYCAGSRYTYAYGGGYEFHFWGQGTLVTVSS
VL: QAVLNQPASVSGALGQKVTISCSGSTMDIDIFGVSWYQQLPGKAPKLLVDSDGDRPSGIPDRFSGSRSGNSGTLTITGLQAEDEADYHCQSGDSTLGALLIFGGGTHVTVL
notes: CDR scanning mutant of ZTS-842 (48L2)
Regarding B1, the “Percent Similarity Score (KD on hN)” value with human NGF is 99.9%. Besides, the “Percent Similarity Score (KD on cN)” value with canine NGF worked out at 97.8%. The “Percent Similarity Score (KD on rN)” value with rat NGF came to 98.3%.

B2: can48L2VL_G92A (antibody, V domains shown)
VH: EVQLVESGGDLVKPGGSLRLSCVASGFTFSTYGINWVRQAPGKGLQWVAYISSGGSSTYYADPVKGRFTISRDDAKNMLYLQMNSLRAEDTAIYYCAGSRYTYAYGGGYEFHFWGQGTLVTVSS
VL: QAVLNQPASVSGALGQKVTISCSGSTMDIDIFGVSWYQQLPGKAPKLLVDSDGDRPSGIPDRFSGSRSGNSGTLTITGLQAEDEADYHCQSADSTLGALAIFGGGTHVTVL
notes: as for B1
For the molecule B2, the “Percent Similarity Score (KD on hN)” value with human NGF turned out to be 99.3%. Also, the “Percent Similarity Score (KD on cN)” value with canine NGF stood at 93.6%. Also, the “Percent Similarity Score (KD on rN)” value in the assay with rat NGF was determined as 97%.

B3: can48L2VL_G97A (antibody, V domains shown)
VH: EVQLVESGGDLVKPGGSLRLSCVASGFTFSTYGINWVRQAPGKGLQWVAYISSGGSSTYYADPVKGRFTISRDDAKNMLYLQMNSLRAEDTAIYYCAGSRYTYAYGGGYEFHFWGQGTLVTVSS
VL: QAVLNQPASVSGALGQKVTISCSGSTMDIDIFGVSWYQQLPGKAPKLLVDSDGDRPSGIPDRFSGSRSGNSGTLTITGLQAEDEADYHCQSGDSTLAALAIFGGGTHVTVL
notes: as for B1
For B3, in the assay with human NGF, the “Percent Similarity Score (KD on hN)” value was 100%. Moreover, the “Percent Similarity Score (KD on cN)” value with canine NGF was 92.4%. Also, in the assay with rat NGF, the “Percent Similarity Score (KD on rN)” value came out at 99.6%.

B4: can48L2VL_G53A (antibody, V domains shown)
VH: EVQLVESGGDLVKPGGSLRLSCVASGFTFSTYGINWVRQAPGKGLQWVAYISSGGSSTYYADPVKGRFTISRDDAKNMLYLQMNSLRAEDTAIYYCAGSRYTYAYGGGYEFHFWGQGTLVTVSS
VL: QAVLNQPASVSGALGQKVTISCSGSTMDIDIFGVSWYQQLPGKAPKLLVDSDADRPSGIPDRFSGSRSGNSGTLTITGLQAEDEADYHCQSGDSTLGALAIFGGGTHVTVL
notes: as for B1
Turning to B4, the “Percent Similarity Score (KD on hN)” value in the assay with human NGF was determined as 100%. Further, the “Percent Similarity Score (KD on cN)” value in the assay with canine NGF was determined as 100%. Besides, the “Percent Similarity Score (KD on rN)” value with rat NGF is 100%.

B5: can48L2VL_I31A (antibody, V domains shown)
VH: EVQLVESGGDLVKPGGSLRLSCVASGFTFSTYGINWVRQAPGKGLQWVAYISSGGSSTYYADPVKGRFTISRDDAKNMLYLQMNSLRAEDTAIYYCAGSRYTYAYGGGYEFHFWGQGTLVTVSS
VL: QAVLNQPASVSGALGQKVTISCSGSTMDIDAFGVSWYQQLPGKAPKLLVDSDGDRPSGIPDRFSGSRSGNSGTLTITGLQAEDEADYHCQSGDSTLGALAIFGGGTHVTVL
notes: as for B1
Regarding B5, in the assay with human NGF, the “Percent Similarity Score (KD on hN)” value amounted to 86.2%. Besides, in the assay with canine NGF, the “Percent Similarity Score (KD on cN)” value was found to be 32.9%. Also, the “Percent Similarity Score (KD on rN)” value with rat NGF was determined as 39.9%.

B6: can48L2VL_D52A (antibody, V domains shown)
VH: EVQLVESGGDLVKPGGSLRLSCVASGFTFSTYGINWVRQAPGKGLQWVAYISSGGSSTYYADPVKGRFTISRDDAKNMLYLQMNSLRAEDTAIYYCAGSRYTYAYGGGYEFHFWGQGTLVTVSS
VL: QAVLNQPASVSGALGQKVTISCSGSTMDIDIFGVSWYQQLPGKAPKLLVDSAGDRPSGIPDRFSGSRSGNSGTLTITGLQAEDEADYHCQSGDSTLGALAIFGGGTHVTVL
notes: as for B1
Regarding B6, in the assay with human NGF, the “Percent Similarity Score (KD on hN)” value was determined as 100%. Further, the “Percent Similarity Score (KD on cN)” value with canine NGF amounted to 99.7%. In the assay with rat NGF, the “Percent Similarity Score (KD on rN)” value came to 99.9%.

B7: can48L2VL_D93A (antibody, V domains shown)
VH: EVQLVESGGDLVKPGGSLRLSCVASGFTFSTYGINWVRQAPGKGLQWVAYISSGGSSTYYADPVKGRFTISRDDAKNMLYLQMNSLRAEDTAIYYCAGSRYTYAYGGGYEFHFWGQGTLVTVSS
VL: QAVLNQPASVSGALGQKVTISCSGSTMDIDIFGVSWYQQLPGKAPKLLVDSDGDRPSGIPDRFSGSRSGNSGTLTITGLQAEDEADYHCQSGASTLGALAIFGGGTHVTVL
notes: as for B1
As for B7, the “Percent Similarity Score (KD on hN)” value in the assay with human NGF stood at 99.9%. Further, the “Percent Similarity Score (KD on cN)” value with canine NGF was determined as 98.7%. Further, in the assay with rat NGF, the “Percent Similarity Score (KD on rN)” value was 99.5%.

B8: can48L2VL_D30A (antibody, V domains shown)
VH: EVQLVESGGDLVKPGGSLRLSCVASGFTFSTYGINWVRQAPGKGLQWVAYISSGGSSTYYADPVKGRFTISRDDAKNMLYLQMNSLRAEDTAIYYCAGSRYTYAYGGGYEFHFWGQGTLVTVSS
VL: QAVLNQPASVSGALGQKVTISCSGSTMDIAIFGVSWYQQLPGKAPKLLVDSDGDRPSGIPDRFSGSRSGNSGTLTITGLQAEDEADYHCQSGDSTLGALAIFGGGTHVTVL
notes: as for B1
Take B8: the “Percent Similarity Score (KD on hN)” value with human NGF was 99.7%. Also, the “Percent Similarity Score (KD on cN)” value with canine NGF was determined as 98.3%. The “Percent Similarity Score (KD on rN)” value with rat NGF came out at 98.7%.

B9: can48L2VL_I29A (antibody, V domains shown)
VH: EVQLVESGGDLVKPGGSLRLSCVASGFTFSTYGINWVRQAPGKGLQWVAYISSGGSSTYYADPVKGRFTISRDDAKNMLYLQMNSLRAEDTAIYYCAGSRYTYAYGGGYEFHFWGQGTLVTVSS
VL: QAVLNQPASVSGALGQKVTISCSGSTMDADIFGVSWYQQLPGKAPKLLVDSDGDRPSGIPDRFSGSRSGNSGTLTITGLQAEDEADYHCQSGDSTLGALAIFGGGTHVTVL
notes: as for B1
Take B9: in the assay with human NGF, the “Percent Similarity Score (KD on hN)” value stood at 97.8%. The “Percent Similarity Score (KD on cN)” value with canine NGF was 47%. Also, in the assay with rat NGF, the “Percent Similarity Score (KD on rN)” value amounted to 57.2%.

B10: can48L2VL_D28A (antibody, V domains shown)
VH: EVQLVESGGDLVKPGGSLRLSCVASGFTFSTYGINWVRQAPGKGLQWVAYISSGGSSTYYADPVKGRFTISRDDAKNMLYLQMNSLRAEDTAIYYCAGSRYTYAYGGGYEFHFWGQGTLVTVSS
VL: QAVLNQPASVSGALGQKVTISCSGSTMAIDIFGVSWYQQLPGKAPKLLVDSDGDRPSGIPDRFSGSRSGNSGTLTITGLQAEDEADYHCQSGDSTLGALAIFGGGTHVTVL
notes: as for B1
Regarding B10, the “Percent Similarity Score (KD on hN)” value with human NGF was found to be 99.6%. In addition, the “Percent Similarity Score (KD on cN)” value with canine NGF amounted to 97%. The “Percent Similarity Score (KD on rN)” value in the assay with rat NGF came to 97.7%.

B11: can48L2VL_G33A (antibody, V domains shown)
VH: EVQLVESGGDLVKPGGSLRLSCVASGFTFSTYGINWVRQAPGKGLQWVAYISSGGSSTYYADPVKGRFTISRDDAKNMLYLQMNSLRAEDTAIYYCAGSRYTYAYGGGYEFHFWGQGTLVTVSS
VL: QAVLNQPASVSGALGQKVTISCSGSTMDIDIFAVSWYQQLPGKAPKLLVDSDGDRPSGIPDRFSGSRSGNSGTLTITGLQAEDEADYHCQSGDSTLGALAIFGGGTHVTVL
notes: as for B1
In the case of B11, the “Percent Similarity Score (KD on hN)” value with human NGF is 56.6%. Also, the “Percent Similarity Score (KD on cN)” value in the assay with canine NGF was determined as 17.5%. Moreover, the “Percent Similarity Score (KD on rN)” value with rat NGF stood at 21.2%.

B12: can48L2VL_F32A (antibody, V domains shown)
VH: EVQLVESGGDLVKPGGSLRLSCVASGFTFSTYGINWVRQAPGKGLQWVAYISSGGSSTYYADPVKGRFTISRDDAKNMLYLQMNSLRAEDTAIYYCAGSRYTYAYGGGYEFHFWGQGTLVTVSS
VL: QAVLNQPASVSGALGQKVTISCSGSTMDIDIAGVSWYQQLPGKAPKLLVDSDGDRPSGIPDRFSGSRSGNSGTLTITGLQAEDEADYHCQSGDSTLGALAIFGGGTHVTVL
notes: as for B1
Consider B12, for which, in the assay with human NGF, the “Percent Similarity Score (KD on hN)” value is 44.3%. Besides, the “Percent Similarity Score (KD on cN)” value in the assay with canine NGF is 19.6%. In the assay with rat NGF, the “Percent Similarity Score (KD on rN)” value came to 66%.

These data come from US20210221899A1 (published 2021).
